{"source": "the Human Domainome abundance scans (Beltran et al. 2025)", "parents": {"B1": {"name": "Homeobox protein SIX6, residues 134 to 184; numbered along this chain, O95475 (parent)", "chain": "CFKERTRHLLREWYLQDPYPNPSKKRELAQATGLTPTQVGNWFKNRRQRDR"}}, "note": "± gives the uncertainty stated by the source."}
{"variants_of": "B1", "assay": "abundance fitness (aPCA) (normalised: wild type 0, dead -1); higher = more abundant; growth selection in yeast, the domain comes from the species named", "details": "Homo sapiens"}
{"variant": "R47D", "abundance fitness": "-0.84 ± 0.069"}
{"variant": "R47W", "abundance fitness": "-0.425 ± 0.088"}
{"variant": "R47T", "abundance fitness": "-0.825 ± 0.12"}
{"variant": "F2N", "abundance fitness": "0.333 ± 0.36"}
{"variant": "F2R", "abundance fitness": "-0.407 ± 0.088"}
{"variant": "F2W", "abundance fitness": "-0.369 ± 0.046"}
{"variant": "F2H", "abundance fitness": "-0.013 ± 0.11"}
{"variant": "F2I", "abundance fitness": "0.179 ± 0.14"}
{"variant": "W42Q", "abundance fitness": "-0.726 ± 0.29"}
{"variant": "W42L", "abundance fitness": "-0.743 ± 0.14"}
{"variant": "W42P", "abundance fitness": "-0.983 ± 0.37"}
{"variant": "W42M", "abundance fitness": "-0.881 ± 0.091"}
{"variant": "A29V", "abundance fitness": "-0.767 ± 0.063"}
{"variant": "A29L", "abundance fitness": "-0.917 ± 0.068"}
{"variant": "A29Q", "abundance fitness": "-0.527 ± 0.095"}
{"variant": "N21F", "abundance fitness": "-0.839 ± 0.071"}
{"variant": "N21V", "abundance fitness": "-0.199 ± 0.1"}
{"variant": "N21T", "abundance fitness": "0.155 ± 0.049"}
{"variant": "L10P", "abundance fitness": "-0.793 ± 0.17"}
{"variant": "L10W", "abundance fitness": "-0.892 ± 0.084"}
{"variant": "P18H", "abundance fitness": "-0.442 ± 0.26"}
{"variant": "P18G", "abundance fitness": "-0.824 ± 0.092"}
{"variant": "P18I", "abundance fitness": "-0.776 ± 0.37"}
{"variant": "P18F", "abundance fitness": "-1.11 ± 0.28"}
{"variant": "K25D", "abundance fitness": "-0.741 ± 0.17"}
{"variant": "K25L", "abundance fitness": "0.049 ± 0.067"}
{"variant": "K25S", "abundance fitness": "-0.423 ± 0.055"}
{"variant": "K25M", "abundance fitness": "-0.126 ± 0.079"}
{"variant": "K25A", "abundance fitness": "-0.334 ± 0.068"}
{"variant": "K25H", "abundance fitness": "-0.031 ± 0.27"}
{"variant": "N45K", "abundance fitness": "-0.13 ± 0.054"}
{"variant": "N45V", "abundance fitness": "-0.612 ± 0.14"}
{"variant": "N45L", "abundance fitness": "-0.401 ± 0.069"}
{"variant": "K3D", "abundance fitness": "0.122 ± 0.054"}
{"variant": "K3S", "abundance fitness": "0.295 ± 0.09"}
{"variant": "K3W", "abundance fitness": "-0.298 ± 0.081"}
{"variant": "K3E", "abundance fitness": "-0.083 ± 0.11"}
{"variant": "K3V", "abundance fitness": "-0.562 ± 0.098"}
{"variant": "K3F", "abundance fitness": "-0.095 ± 0.097"}
{"variant": "K3I", "abundance fitness": "-0.17 ± 0.21"}
{"variant": "R51A", "abundance fitness": "-0.353 ± 0.34"}
{"variant": "R51T", "abundance fitness": "-0.529 ± 0.11"}
{"variant": "Y14G", "abundance fitness": "-0.571 ± 0.072"}
{"variant": "Y14C", "abundance fitness": "-0.994 ± 0.13"}
{"variant": "Y14F", "abundance fitness": "-0.071 ± 0.06"}
{"variant": "T37Y", "abundance fitness": "-0.236 ± 0.14"}
{"variant": "T37C", "abundance fitness": "-0.109 ± 0.095"}
{"variant": "R7G", "abundance fitness": "-0.22 ± 0.057"}
{"variant": "R7E", "abundance fitness": "0.236 ± 0.054"}
{"variant": "R7D", "abundance fitness": "0.167 ± 0.097"}
{"variant": "R7I", "abundance fitness": "0.073 ± 0.059"}
{"variant": "R7K", "abundance fitness": "0.126 ± 0.05"}
{"variant": "R46C", "abundance fitness": "-0.203 ± 0.062"}
{"variant": "R46W", "abundance fitness": "-0.501 ± 0.099"}
{"variant": "R46E", "abundance fitness": "0.062 ± 0.089"}
{"variant": "V39P", "abundance fitness": "-0.999 ± 0.2"}
{"variant": "V39K", "abundance fitness": "-0.556 ± 0.13"}
{"variant": "P36R", "abundance fitness": "-0.603 ± 0.047"}
{"variant": "L15I", "abundance fitness": "-0.019 ± 0.23"}
{"variant": "L15S", "abundance fitness": "-0.03 ± 0.063"}
{"variant": "L15E", "abundance fitness": "-0.067 ± 0.087"}
{"variant": "G40T", "abundance fitness": "-0.175 ± 0.12"}
{"variant": "G40D", "abundance fitness": "-0.503 ± 0.25"}
{"variant": "G40Q", "abundance fitness": "-0.245 ± 0.052"}
{"variant": "G40A", "abundance fitness": "0.01 ± 0.058"}
{"variant": "G40N", "abundance fitness": "-0.579 ± 0.21"}
{"variant": "Q30E", "abundance fitness": "-0.193 ± 0.12"}
{"variant": "Q30G", "abundance fitness": "-0.276 ± 0.065"}
{"variant": "Q30P", "abundance fitness": "-0.893 ± 0.19"}
{"variant": "Q48I", "abundance fitness": "-0.035 ± 0.17"}
{"variant": "Q48D", "abundance fitness": "-0.221 ± 0.32"}
{"variant": "Q48P", "abundance fitness": "-0.795 ± 0.26"}
{"variant": "R26P", "abundance fitness": "-0.836 ± 0.42"}
{"variant": "R26E", "abundance fitness": "0.037 ± 0.13"}
{"variant": "R26C", "abundance fitness": "0.055 ± 0.25"}
{"variant": "R26W", "abundance fitness": "-0.475 ± 0.16"}
{"variant": "G33K", "abundance fitness": "-0.679 ± 0.072"}
{"variant": "G33P", "abundance fitness": "-0.848 ± 0.061"}
{"variant": "G33F", "abundance fitness": "-0.946 ± 0.14"}
{"variant": "G33R", "abundance fitness": "-0.738 ± 0.051"}
{"variant": "R11H", "abundance fitness": "-0.487 ± 0.23"}
{"variant": "R11W", "abundance fitness": "-0.129 ± 0.078"}
{"variant": "R11G", "abundance fitness": "-0.119 ± 0.075"}
{"variant": "R11E", "abundance fitness": "0.125 ± 0.043"}
{"variant": "R11Q", "abundance fitness": "0.268 ± 0.078"}
{"variant": "Q16V", "abundance fitness": "-0.067 ± 0.1"}
{"variant": "Q16C", "abundance fitness": "-0.495 ± 0.29"}
{"variant": "Q16R", "abundance fitness": "-0.172 ± 0.068"}
{"variant": "F43G", "abundance fitness": "-0.577 ± 0.079"}
{"variant": "F43A", "abundance fitness": "-1.01 ± 0.17"}
{"variant": "F43R", "abundance fitness": "-0.92 ± 0.066"}
{"variant": "D17I", "abundance fitness": "-1.01 ± 0.16"}
{"variant": "D17Y", "abundance fitness": "-0.97 ± 0.09"}
{"variant": "Q38Y", "abundance fitness": "-0.77 ± 0.3"}
{"variant": "Q38C", "abundance fitness": "-0.798 ± 0.31"}
{"variant": "T35M", "abundance fitness": "-0.703 ± 0.066"}
{"variant": "T35A", "abundance fitness": "-0.846 ± 0.077"}
{"variant": "T35N", "abundance fitness": "-0.581 ± 0.064"}
{"variant": "T35W", "abundance fitness": "-0.822 ± 0.056"}
{"variant": "T6F", "abundance fitness": "-0.691 ± 0.16"}
{"variant": "T6Q", "abundance fitness": "-0.168 ± 0.058"}
{"variant": "T6W", "abundance fitness": "-0.182 ± 0.097"}
{"variant": "R5K", "abundance fitness": "-0.263 ± 0.21"}
{"variant": "R5N", "abundance fitness": "-0.075 ± 0.13"}
{"variant": "R5Y", "abundance fitness": "-0.221 ± 0.43"}
{"variant": "S23W", "abundance fitness": "-0.517 ± 0.14"}
{"variant": "S23H", "abundance fitness": "-0.523 ± 0.2"}
{"variant": "S23N", "abundance fitness": "-0.175 ± 0.17"}
{"variant": "S23E", "abundance fitness": "0.186 ± 0.1"}
{"variant": "S23A", "abundance fitness": "0.012 ± 0.077"}
{"variant": "E12K", "abundance fitness": "-0.504 ± 0.14"}
{"variant": "E12I", "abundance fitness": "-0.271 ± 0.091"}
{"variant": "E12M", "abundance fitness": "-0.204 ± 0.08"}
{"variant": "E12Q", "abundance fitness": "-0.365 ± 0.14"}
{"variant": "A31L", "abundance fitness": "0.068 ± 0.059"}
{"variant": "A31S", "abundance fitness": "-0.292 ± 0.081"}
{"variant": "A31P", "abundance fitness": "-0.782 ± 0.23"}
{"variant": "A31T", "abundance fitness": "-0.045 ± 0.094"}
{"variant": "A31N", "abundance fitness": "-0.098 ± 0.1"}
{"variant": "N41Y", "abundance fitness": "-0.995 ± 0.37"}
{"variant": "N41P", "abundance fitness": "-1 ± 0.26"}
{"variant": "N41T", "abundance fitness": "-0.259 ± 0.09"}
{"variant": "N41H", "abundance fitness": "-0.392 ± 0.17"}
{"variant": "E4D", "abundance fitness": "0.017 ± 0.075"}
{"variant": "E4G", "abundance fitness": "-0.448 ± 0.1"}
{"variant": "E4Q", "abundance fitness": "-0.277 ± 0.26"}
{"variant": "L28S", "abundance fitness": "-0.981 ± 0.13"}
{"variant": "L28G", "abundance fitness": "-0.883 ± 0.08"}
{"variant": "L28R", "abundance fitness": "-0.765 ± 0.06"}
{"variant": "C1G", "abundance fitness": "0 ± 0.27"}
{"variant": "R49Q", "abundance fitness": "0.143 ± 0.091"}
{"variant": "R49T", "abundance fitness": "-0.213 ± 0.06"}
{"variant": "R49F", "abundance fitness": "-0.238 ± 0.076"}
{"variant": "R49M", "abundance fitness": "-0.489 ± 0.11"}
{"variant": "E27N", "abundance fitness": "-0.683 ± 0.44"}
{"variant": "E27C", "abundance fitness": "-0.441 ± 0.24"}
{"variant": "E27F", "abundance fitness": "-0.318 ± 0.18"}
{"variant": "Y19W", "abundance fitness": "0.052 ± 0.1"}
{"variant": "Y19C", "abundance fitness": "-0.469 ± 0.13"}
{"variant": "Y19E", "abundance fitness": "-0.41 ± 0.06"}
{"variant": "K24P", "abundance fitness": "-0.864 ± 0.08"}
{"variant": "K24Q", "abundance fitness": "0.074 ± 0.054"}
{"variant": "K24T", "abundance fitness": "-0.058 ± 0.048"}
{"variant": "K24W", "abundance fitness": "-0.556 ± 0.069"}
{"variant": "W13V", "abundance fitness": "-0.181 ± 0.05"}
{"variant": "W13N", "abundance fitness": "0.24 ± 0.12"}
{"variant": "W13I", "abundance fitness": "-0.216 ± 0.13"}
{"variant": "W13F", "abundance fitness": "-0.251 ± 0.13"}
{"variant": "L9G", "abundance fitness": "-0.914 ± 0.059"}
{"variant": "L9M", "abundance fitness": "-0.238 ± 0.14"}
{"variant": "L9D", "abundance fitness": "-0.739 ± 0.18"}
{"variant": "D50W", "abundance fitness": "-0.592 ± 0.16"}
{"variant": "D50F", "abundance fitness": "-0.585 ± 0.19"}
{"variant": "D50V", "abundance fitness": "-0.881 ± 0.16"}
{"variant": "L34M", "abundance fitness": "-0.044 ± 0.07"}
{"variant": "L34S", "abundance fitness": "-0.707 ± 0.054"}
{"variant": "L34T", "abundance fitness": "-0.669 ± 0.082"}
{"variant": "P22Q", "abundance fitness": "-0.352 ± 0.17"}
{"variant": "P22D", "abundance fitness": "0.307 ± 0.14"}
{"variant": "P22L", "abundance fitness": "0.161 ± 0.076"}
{"variant": "P22Y", "abundance fitness": "-0.424 ± 0.38"}
{"variant": "P20K", "abundance fitness": "-0.797 ± 0.31"}
{"variant": "P20R", "abundance fitness": "-1.02 ± 0.14"}
{"variant": "P20Y", "abundance fitness": "-0.559 ± 0.37"}
{"variant": "P20M", "abundance fitness": "-0.817 ± 0.067"}
{"variant": "P20C", "abundance fitness": "-0.7 ± 0.34"}
{"variant": "P20W", "abundance fitness": "-1.05 ± 0.16"}
